Legend:
p53 [1] = biological target: T1, p53 (Homo sapiens, UniProt P04637); experiment: Co-immunoprecipitation with p53 in transfected Saos-2 cells; assay type: binding
T1 construct: expressed in transfected cells
Experimental: The cells were lysed in NP40 lysis buffer and 1000 μg of lysate immunoprecipitated with antibodies to iASPP bound to Protein G beads.

p53 [2] = biological target: T1, p53; experiment: Transient luciferase reporter assay of p53 transactivation function in Saos-2 cells; assay type: cell-based; conditions: for effect on ASPP stimulation of p53 transactivation function on the Bax promoter: co-expressed with p53 and ASPP1 or ASPP2
Experimental: (§1) The amount of luciferase expression was determined as previously described in Samuels-Lev et al. (Mol. Cell 8:781-94, 2001, herein incorporated by reference).
(§2) The amount of transactivation function was determined as described in Example 4.
(§3) To determine the amount of protein expression, Saos-2 cells (5×10^5) were plated 24 hours prior to transfection in 6 cm dishes. […] To determine the amount of gene activation, after transfection, the cells were lysed in Reporter Lysis Buffer 16-24 hours post-wash and assayed using the Luciferase Assay kit (Promega, Wis.). The fold activation of a particular reporter was determined by the activity of the transfected plasmid above the activity of vector alone.
(§4) The expression level of transfected proteins was detected using 40 μg of the respective lysates using the antibodies V5, DX.5410, DO1, 4A4 and p73. […] Results were derived from at least three independent experiments.

MCF-7 cells = experiment: Cellular resistance to the cytotoxic effect of cisplatin in MCF-7 cells; assay type: cell-based, human; conditions: iASPP-expressing versus non-expressing cells, FIG. 10B
From the text: Many chemotherapy drugs are DNA-damage agents and induce apoptosis via p53-dependent pathway. […] The cellular resistance to the cytotoxic effect of cisplatin were compared between iASPP-expressing and non-expressing iASPP MCF-7 cells. Expression of iASPP enhanced the cellular resistance by about 2.5 fold (FIG. 10B). Such an increase in cellular resistance to cisplatin is significant with respect to cancer treatment.

Saos-2 cells = experiment: Apoptosis by flow cytometry (CD20-gated, sub-G1 DNA content) in transfected Saos-2 cells; assay type: cell-based
Experimental: Apoptosis was identified by the expression of the co-transfected cell surface marker CD20, as described in Samuels-Lev et al. (Mol. Cell 8:781-94, 2001, herein incorporated by reference).
The number of apoptotic cells was determined using the methods described in Example 6.
Cells (10^6) were plated 24-48 hours prior to transfection in 10 cm plates. Cells were grown in DMEM supplemented with 10% FCS and transfected with 2 μg of a plasmid expressing CD20 as a transfection marker. Increasing amounts of ASPP1 and ASPP2 were transfected (7.5 μg, 15 μg and 25 μg). 36 hours after the transfection, both attached and floating cells were harvested and analysed using flow cytometry as follows. The transfected cells were gated based on the expression of CD20. The percentage of apoptotic cells was measured by the accumulation of cells with a sub-G1 DNA content derived from at least three individual experiments.
The transfected cells were analyzed by flow cytometry as described in Example 6.

U2OS and MCF7 cells = experiment: Apoptosis by FACS in U2OS and MCF7 cells expressing wild-type p53, with or without cisplatin; assay type: cell-based, human; conditions: for effect on cisplatin-induced apoptosis: transfected before cisplatin, FIGS. 7B and 7D
Experimental: The transfected cells were gated, and the apoptotic cells identified by FACS as described in Example 6.
Before exposure to cisplatin (5 and 3 μg/ml respectively), U2OS and MCF7 cells were transfected with plasmids encoding HPV16 E6, iASPP, or 53BP2. Thirty hours later, cells were harvested and analysed as above.
Fragments from the 5′ ends of ASPP1, ASPP2 and iASPP cDNA were cloned into a mammalian expression vector in an antisense orientation and their ability to inhibit the protein synthesis determined in vitro. The antisense nucleic acid molecules were amplified by PCR on the respective plasmid clones using primers spanning the following nucleotide regions (relative to the initial ATG): −74 to 923; −253 to 839 and −37 to 536 for ASPP1, ASPP2 and iASPP respectively. The amplified segments were purified with the QIAquick PCR purification kit (QIAGEN) and ligated in the pcDNA3.1/V5-His TOPO vector (Invitrogen) according to the manufacturer's instructions.
U2OS and MCF-7 cells were transfected with the various expression plasmids prior to the treatment with cisplatin and analyzed using FACS as described above.
To determine the anti-apoptotic role of iASPP, both U2OS and MCF-7 cells were transfected with antisense iASPP and cells analyzed as described above. […] A small increase in apoptotic cells was consistently detected (FIG. 7D).

[3] = system: rat embryo fibroblasts (REFs); experiment: Transformation of rat embryo fibroblasts with E7; assay type: cell-based; conditions: co-transfected with E7, FIG. 10A
p53 [4] = experiment: Transient luciferase reporter assay of p53 transactivation function in Saos-2 cells; assay type: cell-based; conditions: expressed without p53, FIG. 8B
Experimental: as §1, §2, §3, §4

T1 sequence (P04637 whole entry): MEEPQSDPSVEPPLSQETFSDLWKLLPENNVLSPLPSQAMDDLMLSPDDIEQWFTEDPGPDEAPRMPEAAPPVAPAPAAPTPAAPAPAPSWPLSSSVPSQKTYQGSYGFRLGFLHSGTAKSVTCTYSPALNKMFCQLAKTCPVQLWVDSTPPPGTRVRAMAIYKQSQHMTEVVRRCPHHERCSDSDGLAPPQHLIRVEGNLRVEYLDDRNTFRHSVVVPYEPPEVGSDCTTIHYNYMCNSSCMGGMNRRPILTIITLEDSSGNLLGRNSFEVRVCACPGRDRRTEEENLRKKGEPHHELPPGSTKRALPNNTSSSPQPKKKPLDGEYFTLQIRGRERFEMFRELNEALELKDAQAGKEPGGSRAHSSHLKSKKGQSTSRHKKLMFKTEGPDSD

B1: ASPP2/bBP2: 1005 amino acid polypeptide, amino acids 123-1128 of ASPP2 (protein)
chain: RMDLTLAELQEMASRQQQQIEAQQQLLATKEQRLKFLKQQDQRQQQQVAEQEKLKRLKEIAENQEAKLKKVRALKGHVEQKRLSNGKLVEEIEQMNNLFQQKQRELVLAVSKVEELTRQLEMLKNGRIDSHHDNQSAVAELDRLYKELQLRNKLNQEQNAKLQQQRECLNKRNSEVAVMDKRVNELRDRLWKKKAALQQKENLPVSSDGNLPQQAASAPSRVAAVGPYIQSSTMPRMPSRPELLVKPALPDGSLVIQASEGPMKIQTLPNMRSGAASQTKGSKIHPVGPDWSPSNADLFPSQGSASVPQSTGNALDQVDDGEVPLREKEKKVRPFSMFDAVDQSNAPPSFGTLRKNQSSEDILRDAQVANKNVAKVPPPVPTKPKQINLPYFGQTNQPPSDIKPDGSSQQLSTVVPSMGTKPKPAGQQPRVLLSPSIPSVGQDQTLSPGSKQESPPAAAVRPFTPQPSKDTLLPPFRKPQTVAASSIYSMYTQQQAPGKNFQQAVQSALTKTHTRGPHFSSVYGKPVIAAAQNQQQHPENIYSNSQGKPGSPEPETEPVSSVQENHENERIPRPLSPTKLLPFLSNPYRNQSDADLEALRKKLSNAPRPLKKRSSITEPEGPNGPNIQKLLYQRTTIAAMETISVPSYPSKSASVTASSESPVEIQNPYLHVEPEKEVVSLVPESLSPEDVGNASTENSDMPAPSPGLDYEPEGVPDNSPNLQNNPEEPNPEAPHVLDVYLEEYPPYPPPPYPSGEPEGPGEDSVSMRPPEITGQVSLPPGKRTNLRKTGSERIAHGMRVKFNPLALLLDSSLEGEFDLVQRIIYEVDDPSLPNDEGITALHNAVCAGHTEIVKFLVQFGVNVNAADSDGWTPLHCAASCNNVQVCKFLVESGAAVFAMTYSDMQTAADKCEEMEEGYTQCSQFLYGVQEKMGIMNKGVIYALWDYEPQNDDELPMKEGDCMTIIHREDEDEIEWWWARLNDKEGYVPRNLLGLYPRIKPRQRSLA
- interaction with p53 by immunoprecipitation and western blot (p53 [1]): interacted with p53 in vivo
- stimulation of the transactivation function of p53 (p53 [2]; versions of ASPP2 co-expressed with p53, FIG. 3): about 2 fold

B2: iASPP: Inhibitor of Apoptosis Stimulating Proteins, p65 rel A binding protein of 315 amino acids, SEQ ID NO: 6 (protein)
chain: MWMKDPVARPLSPTRLQPALPPEAQSVPELEEVARVLAEIPRPLKRRGSMEQAPAVALPPTHKKQYQQIISRLFHRHGGPGPGGRSQSCPPSLRDLRPGQGPLLLPHQLPFHRPAPSQSSPPEQPQSMEMRSVLRKAGSPRKARRARLNPLVLLLDAALTGELEVVQQAVKEMNDPSQPNEEGITALHNAICGANYSIVDFLITAGANVNSPDSHGWTPLHCAASCNDTVICMALVQHGAAIFATTLSDGATAFEKCDPYREGYADCATYLADVEQSMGLMNSGAVYALWDYSAEFGDELSFREGESVTVLRRDGPEETDWWWAALHGQEGYVPRNYFGLFPRVKPQRSKV
modifications: homo sapiens
- interaction with p53 by immunoprecipitation and western blot (p53 [1]): interacted with p53
- effect on ASPP stimulation of p53 transactivation function on the Bax promoter (p53 [2]): decreased or eliminated the ability
- enhancement of cellular resistance to cisplatin (MCF-7 cells): about 2.5 fold
- effect on the apoptotic function of wild type p53 (Saos-2 cells; co-expressed with p53): small inhibitory effect
- effect on the enhancement of p53 apoptotic function by ASPP1 and ASPP2 (Saos-2 cells; co-expressed with p53 and ASPP1 or ASPP2): decreased or inhibited the enhanced apoptotic function of p53
- apoptosis when expressed alone (Saos-2 cells; no p53 co-expressed): did not induce apoptosis on its own
- effect on cisplatin-induced apoptosis (U2OS and MCF7 cells): inhibited cisplatin-induced apoptosis to a similar extent as E6
- transforming function of E7 [3]: enhanced the transforming function of E7 significantly

B3: Ikb: the inhibitor of p65 Rel A (protein, UniProt P25963 1-317, looked up)
NF-kappa-B inhibitor alpha: MFQAAERPQEWAMEGPRDGLKKERLLDDRHDSGLDSMKDEEYEQMVKELQEIRLEPQEVPRGSEPWKQQLTEDGDSFLHLAIIHEEKALTMEVIRQVKGDLAFLNFQNNLQQTPLHLAVITNQPEIAEALLGAGCDPELRDFRGNTPLHLACEQGCLASVGVLTQSCTTPHLHSILKATNYNGHTCLHLASIHGYLGIVELLVSLGADVNAQEPCNGRTALHLAVDLQNPDLVSLLLKCGADVNRVTYQGYSPYQLTWGRPSTRIQQQLGQLTLENLQMLPESEDEESYDTESEFTEFTEDELPYDDCVFGGQRLTL
- inhibition of the transactivation function of p53 on the Bax promoter (p53 [2]; 50 ng co-expressed with p53): very little inhibition
- transactivation function of p53 on the mdm2 promoter (p53 [2]; FIG. 8C, Ikb even in the presence of ASPP2): hardly decreased
- effect on ASPP stimulation of p53 transactivation function on the Bax promoter (p53 [2]): significantly decreased ASPP2-mediated stimulation
- inhibition of Bax promoter reporter activity (p53 [4]): did not show any detectable inhibition
- percentage of apoptotic cells, co-expressed with p53 and ASPP2 (Saos-2 cells; Example 11, p53+ASPP2 30%): 16%
- percentage of apoptotic cells, co-expressed with p53 (Saos-2 cells; Example 11, p53 alone […]%): 11%
- percentage of apoptotic cells, expressed alone (Saos-2 cells; Example 11, vector alone 4.6%): 7.2%

B4: ASPP2/53BP2: 528 amino acid C-terminal polypeptide, amino acids 600-1128 of ASPP2 (protein)
chain: KPQTVAASSIYSMYTQQQAPGKNFQQAVQSALTKTHTRGPHFSSVYGKPVIAAAQNQQQHPENIYSNSQGKPGSPEPETEPVSSVQENHENERIPRPLSPTKLLPFLSNPYRNQSDADLEALRKKLSNAPRPLKKRSSITEPEGPNGPNIQKLLYQRTTIAAMETISVPSYPSKSASVTASSESPVEIQNPYLHVEPEKEVVSLVPESLSPEDVGNASTENSDMPAPSPGLDYEPEGVPDNSPNLQNNPEEPNPEAPHVLDVYLEEYPPYPPPPYPSGEPEGPGEDSVSMRPPEITGQVSLPPGKRTNLRKTGSERIAHGMRVKFNPLALLLDSSLEGEFDLVQRIIYEVDDPSLPNDEGITALHNAVCAGHTEIVKFLVQFGVNVNAADSDGWTPLHCAASCNNVQVCKFLVESGAAVFAMTYSDMQTAADKCEEMEEGYTQCSQFLYGVQEKMGIMNKGVIYALWDYEPQNDDELPMKEGDCMTIIHREDEDEIEWWWARLNDKEGYVPRNLLGLYPRIKPRQRSLA
modifications: left off: small tags and cut ends
notes: 528 amino acid C-terminal polypeptide, amino acids 600-1128 of ASPP2
- reduction of the transactivation function of p53 (p53 [2]; co-expressed with p53, FIG. 3): about 50%
- effect on ASPP stimulation of p53 transactivation function on the Bax promoter (p53 [2]): inhibited ASPP2 stimulation
- stimulation of p21waf1 and PG synthetic promoters (p53 [2]; co-expression with p53): slight stimulation
- stimulation of the promoter activity of mdm2 and cyclin G (p53 [2]; co-expression with p53): failed to stimulate
- apoptotic cells (Saos-2 cells; p53, ASPP2 and ASPP2/53BP2 all co-expressed, FIG. 4C): 30%
- effect on cisplatin-induced apoptosis (U2OS and MCF7 cells): inhibited cisplatin-induced apoptosis to a similar extent as E6

B5: E6: viral oncoprotein from human papilloma virus that binds p53 and targets it for degradation (protein, UniProt P03126 1-158, looked up)
Protein E6: MHQKRTAMFQDPQERPRKLPQLCTELQTTIHDIILECVYCKQQLLRREVYDFAFRDLCIVYRDGNPYAVCDKCLKFYSKISEYRHYCYSLYGTTLEQQYNKPLCDLLIRCINCQKPLCPEEKQRHLDKKQRFHNIRGRWTGRCMSCCRSSRTRRETQL
- percentage of transfected cells that die of apoptosis after cisplatin (U2OS and MCF7 cells; cisplatin 5 and 3 μg/ml (U2OS, MCF7), thirty hours): below 15%
- effect on apoptosis induced by ASPP1 or ASPP2 (U2OS and MCF7 cells; co-expression): inhibited the apoptosis induced by ASPP1 or ASPP2
- effect on cisplatin-induced apoptosis (U2OS and MCF7 cells): reduced the percentage of apoptotic cells to half

Source: patent US20040228866A1, “Suppressor genes” (Ludwig Institute for Cancer Research, priority 2000, published 2004)
